Measured values as given in the supplement of paper PMC6755084.

B1: F1*; the commonest letter at each place (parent)
chain: GAGACCGCAACTGAAAAGTTGTTATCACTTGTCGTAAGACACTTTGGATGGGTTGAAGTTCTGCACGTAGAAGCAAAAGGC

Variants of: B1
Test: fraction ligated after 30 min (ligated reads / total reads); higher = more ligase activity
Details: with F1*sub RNA substrate (template-directed ligation), 42 °C
Summary of the method: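 Templates from an oligo pool were PCR-amplified, transcribed with T7 and gel-purified to give the ribozyme variants. Ligated and unligated products were separated on gel, reverse transcribed using barcoded primers, and read on a MiSeq. A quality filter of ≥20 was applied to core bases. Fraction ligated was taken as ligated reads as a share of all reads per variant.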

Variant | fraction ligated
C42T A57C | 0.812
C42T A57T | 0.847
C42T A57G | 0.812
T45A G46C | 0.0374
T45A G46A | 0.178
T43C G46C | 0.791
T43C G46T | 0.776
T43C G46A | 0.789
T43G A48G | 0.78
T43G A48C | 0.625
T43G A48T | 0.668
T43A T49C | 0.605
T43A T49G | 0.797
T43A T49A | 0.743
T44G G55T | 0.795
T44G G55C | 0.729
T44G G55A | 0.842
C42A T44C | 0.834
C42A T44G | 0.805
C42A T44A | 0.855
A41G T45A | 0.482
A41G T45G | 0.119
A41G T45C | 0.541
C42G G55T | 0.809

Variant | fraction ligated
C42G G55A | 0.853
C42G G55C | 0.758
C42A A57C | 0.797
C42A A57T | 0.848
C42A A57G | 0.794
T45A A48C | 0.23
T45A A48T | 0.0749
T45A A48G | 0.261
C42A G50C | 0.239
C42A G50A | 0.345
C42A G50T | 0.658
T43C A57C | 0.733
T43C A57G | 0.785
T43C A57T | 0.79
C42G T43C | 0.836
C42G T43A | 0.856
C42G T43G | 0.827
T44G G47A | 0.305
T44G G47C | 0.0306
T44G G47T | 0.0521
C42A G46T | 0.789
C42A G46A | 0.821
C42A G46C | 0.811
T43C T45G | 0.257

Variant | fraction ligated
T43C T45A | 0.574
T43C T45C | 0.584
C42G G50T | 0.713
C42G G50A | 0.372
C42G G50C | 0.27
T44A G50A | 0.643
T44A G50C | 0.442
T44A G50T | 0.758
T44G G46C | 0.806
T44G G46A | 0.818
T44G G46T | 0.805
T44A G55T | 0.829
T44A G55C | 0.795
T44A G55A | 0.827
C42G A57C | 0.818
C42G A57T | 0.834
C42G A57G | 0.807
C42T A56G | 0.821
C42T A56T | 0.811
C42T A56C | 0.797
A41T A56T | 0.792
A41T A56C | 0.784
A41T A56G | 0.778
T44G T49G | 0.714

Variant | fraction ligated
T44G T49C | 0.183
T44G T49A | 0.584
C42A A56G | 0.781
C42A A56T | 0.798
C42A A56C | 0.794
T44G | 0.844
T44A | 0.849
T44C | 0.837
T43A A48C | 0.734
T43A A48G | 0.807
T43A A48T | 0.774
C42T G55A | 0.844
C42T G55C | 0.797
C42T G55T | 0.848
T44C G50T | 0.691
T44C G50A | 0.406
T44C G50C | 0.224
A41T T45G | 0.283
A41T T45C | 0.428
A41T T45A | 0.741
C42A T49G | 0.789
C42A T49C | 0.727
C42A T49A | 0.797
C42G A56G | 0.792

Variant | fraction ligated
C42G A56C | 0.801
C42G A56T | 0.797
A41T G55A | 0.809
A41T G55C | 0.706
A41T G55T | 0.81
C42T G46C | 0.813
C42T G46T | 0.805
C42T G46A | 0.835
T44C T45C | 0.747
T44C T45A | 0.768
T44C T45G | 0.191
T43G T44A | 0.808
T43G T44G | 0.809
T43G T44C | 0.809
T43C A48T | 0.668
T43C A48G | 0.764
T43C A48C | 0.723
C42A A48C | 0.761
C42A A48T | 0.803
C42A A48G | 0.785
T43A G50A | 0.267
T43A G50C | 0.153
T43A G50T | 0.614
T44C G47A | 0.772

Variant | fraction ligated
T44C G47T | 0.152
T44C G47C | 0.0629
T44C A48C | 0.783
T44C A48G | 0.821
T44C A48T | 0.781
T44C A56G | 0.793
T44C A56C | 0.791
T44C A56T | 0.78
T44C A57C | 0.744
T44C A57G | 0.802
T44C A57T | 0.806
T43A G55C | 0.724
T43A G55A | 0.854
T43A G55T | 0.839
T44G T45G | 0.35
T44G T45C | 0.797
T44G T45A | 0.769
T45A A56G | 0.768
T45A A56T | 0.793
T45A A56C | 0.782
C42G T45G | 0.291
C42G T45C | 0.756
C42G T45A | 0.796
A41T | 0.837

Variant | fraction ligated
T43A A56T | 0.81
T43A A56C | 0.79
T43A A56G | 0.782
T44A T45A | 0.762
T44A T45G | 0.187
T44A T45C | 0.8
T43G T45G | 0.0141
T43G T45C | 0.319
T43G T45A | 0.763
T43A T44C | 0.836
T43A T44G | 0.804
T43A T44A | 0.848
C42T | 0.856
C42A | 0.84
C42G | 0.854
T43A G47A | 0.804
T43A G47T | 0.643
T43A G47C | 0.515
T43G G47C | 0.447
T43G G47T | 0.52
T43G G47A | 0.802
T43G A57C | 0.809
T43G A57G | 0.803
T43G A57T | 0.799

Variant | fraction ligated
A41T A48G | 0.762
A41T A48T | 0.345
A41T A48C | 0.73
T44A A48T | 0.82
T44A A48G | 0.808
T44A A48C | 0.758
C42A T43A | 0.82
C42A T43C | 0.825
C42A T43G | 0.805
A41T G50C | 0.268
A41T G50T | 0.715
A41T G50A | 0.342
T43A G46C | 0.789
T43A G46A | 0.789
T43A G46T | 0.81
A41T G47T | 0.418
A41T G47A | 0.783
A41T G47C | 0.211
C42G G46T | 0.793
C42G G46C | 0.816
C42G G46A | 0.808
T44G A56C | 0.775
T44G A56T | 0.809
T44G A56G | 0.752

Variant | fraction ligated
A41T T49A | 0.686
A41T T49C | 0.658
A41T T49G | 0.749
C42A T45A | 0.766
C42A T45G | 0.282
C42A T45C | 0.778
T43C T49A | 0.638
T43C T49C | 0.427
T43C T49G | 0.665
T43G G46T | 0.787
T43G G46A | 0.808
T43G G46C | 0.783
C42T T44G | 0.833
C42T T44C | 0.855
C42T T44A | 0.862
C42T T49A | 0.791
C42T T49C | 0.774
C42T T49G | 0.782
T43C G47A | 0.767
T43C G47C | 0.276
T43C G47T | 0.446
C42G T49A | 0.79
C42G T49G | 0.777
C42G T49C | 0.727

Variant | fraction ligated
C42G A48G | 0.821
C42G A48T | 0.792
C42G A48C | 0.765
T44C T49C | 0.494
T44C T49A | 0.737
T44C T49G | 0.772
C42G T44G | 0.841
C42G T44C | 0.851
C42G T44A | 0.851
T44C G46C | 0.8
T44C G46A | 0.778
T44C G46T | 0.787
A41T A57C | 0.787
A41T A57T | 0.808
A41T A57G | 0.807
C42G G47C | 0.64
C42G G47T | 0.68
C42G G47A | 0.805
C42A G55A | 0.837
C42A G55T | 0.814
C42A G55C | 0.746
T45A A57T | 0.794
T45A A57G | 0.752
T45A A57C | 0.773

Variant | fraction ligated
T43C A56C | 0.731
T43C A56T | 0.755
T43C A56G | 0.757
C42T T43A | 0.866
C42T T43C | 0.828
C42T T43G | 0.818
C42A G47C | 0.695
C42A G47T | 0.704
C42A G47A | 0.832
T44A A56T | 0.801
T44A A56G | 0.777
T44A A56C | 0.797
C42T G50T | 0.808
C42T G50C | 0.497
C42T G50A | 0.634
T44G A48G | 0.787
T44G A48C | 0.757
T44G A48T | 0.782
T43A T45G | 0.43
T43A T45C | 0.696
T43A T45A | 0.725
T44G G50C | 0.0717
T44G G50T | 0.344
T44G G50A | 0.132

Variant | fraction ligated
T43G A56T | 0.764
T43G A56G | 0.717
T43G A56C | 0.713
A41T C42T | 0.848
A41T C42A | 0.849
A41T C42G | 0.836
T43G G50T | 0.561
T43G G50A | 0.311
T43G G50C | 0.273
A41T T44A | 0.815
A41T T44C | 0.806
A41T T44G | 0.8
T44G A57C | 0.816
T44G A57T | 0.857
T44G A57G | 0.791
T43C G50A | 0.187
T43C G50T | 0.441
T43C G50C | 0.111
A41T T43C | 0.773
A41T T43G | 0.803
A41T T43A | 0.822
C42T A48G | 0.806
C42T A48C | 0.779
C42T A48T | 0.796

Variant | fraction ligated
A41T G46T | 0.787
A41T G46C | 0.792
A41T G46A | 0.804
T43A A57G | 0.793
T43A A57T | 0.833
T43A A57C | 0.792
T45A | 0.787
C42T G47T | 0.408
C42T G47C | 0.11
C42T G47A | 0.823
T43C T44G | 0.836
T43C T44C | 0.781
T43C T44A | 0.833
T44A G47C | 0.117
T44A G47T | 0.55
T44A G47A | 0.773
T43G G55A | 0.801
T43G G55T | 0.765
T43G G55C | 0.247
A41G T49A | 0.671
A41G T49C | 0.564
A41G T49G | 0.739
T44A A57G | 0.812
T44A A57T | 0.815

Variant | fraction ligated
T44A A57C | 0.796
C42T T45A | 0.799
C42T T45G | 0.557
C42T T45C | 0.79
T44A T49A | 0.779
T44A T49G | 0.785
T44A T49C | 0.737
T43G T49A | 0.76
T43G T49C | 0.726
T43G T49G | 0.743
T44A G46A | 0.816
T44A G46C | 0.793
T44A G46T | 0.81
T44C G55T | 0.779
T44C G55A | 0.815
T44C G55C | 0.754
T43A | 0.855
T43C | 0.81
T43G | 0.822
T43C G55A | 0.803
T43C G55T | 0.817
T43C G55C | 0.571
